± gives the standard deviation of the averaged measurements.
System: ATP
Test: switch fluorescence ratio, 500 uM ATP over buffer (Cy3 cluster intensity, sum of 5 cycles each) (fold (ratio)); higher = stronger signal-on switching upon ATP binding; sequences stand for … in TCGTCGGCAGCGTCAGATGTGTATAAGAGACAGTTTTTTTTTTTTTTTTTTTTTTTTT…TC
Conditions: aptamer strand: ATP DNA aptamer (quencher-CACCTGGGGGAGTATTGCGGAGGAAGG + anchor), 100 nM annealed; ATP concentration: 500 uM
How it was run: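 Switching-strand clusters labelled with Cy3 on a modified Illumina MiSeq flow-cell were annealed to 100 nM quencher-labelled ATP aptamer, imaged in selection buffer, and re-imaged after 15 min with 500 uM ATP at 22 °C. This was done over five cycles with NaOH stripping and re-annealing in between. The fluorescence ratio is summed target-cycle over summed buffer-cycle Cy3 intensity per cluster, averaged per switch-domain sequence, excluding clusters outside 100-1000 RFU.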
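Further: ATP exposure 15 min at 22 °C before imaging.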

| Sequence | switch fluorescence ratio |
| --- | --- |
| GTGTAATTTT | 0.993 ± 0.032 |
| TTTTAAAAAG | 1 ± 0.012 |
| AGGGGGGTGT | 1.03 ± 0.028 |
| CACGTCCAC | 1.44 ± 0.061 |
| TTAGGTTAAA | 1.06 ± 0.12 |
| TTGGCATTTA | 1.034 ± 0.0054 |
| ACAGTGGTCG | 1.06 ± 0.033 |
| TGTGGGGCAT | 1.15 ± 0.27 |
| ATTGGCGGTT | 1.09 ± 0.1 |
| CATAGTGCTT | 0.9715 ± 0.0043 |
| TGGGGTTAGT | 0.979 ± 0.014 |
| GACGTACAAC | 1.619 ± 0.0099 |
| GGGATTGCTA | 1.03 ± 0.012 |
| TGGGCGTTGC | 1.01 ± 0.018 |
| AGCACTGCTG | 1.01 ± 0.014 |
| GGTCTGGGTG | 1.08 ± 0.066 |
| CGGGTCATTT | 0.9691 ± 0.0035 |
| TAAATCACGG | 1.02 ± 0.038 |
| ATTAGCGTTT | 0.977 ± 0.066 |
| TTCGAATATT | 1.13 ± 0.26 |
| TAGCATGGTA | 0.976 ± 0.049 |
| GTAACGGCCG | 1.16 ± 0.18 |
| TGGGTAAGGG | 1.01 ± 0.03 |
| TGATACAAGC | 1.05 ± 0.032 |
| CTATTCTTGG | 0.9524 ± 0.006 |

| Sequence | switch fluorescence ratio |
| --- | --- |
| ATGAGGGGGT | 1.03 ± 0.024 |
| TTGTTTTATA | 0.9733 ± 0.0064 |
| ACCGGCGAGC | 1.01 ± 0.016 |
| TTGGGAGGGG | 1.04 ± 0.083 |
| CTTGGGGGCG | 1.01 ± 0.056 |
| GGTATCTCGA | 1.03 ± 0.044 |
| ACCTTTTTCG | 1.07 ± 0.0096 |
| ATTAATTATC | 0.993 ± 0.031 |
| TTTTTAACAC | 1.02 ± 0.021 |
| GGGGAGTTAT | 1.01 ± 0.0024 |
| GTCGTATTGG | 1.03 ± 0.03 |
| GCGCTTTTGC | 1.04 ± 0.061 |
| TGTGGTCTGT | 0.981 ± 0.033 |
| GAGGGAATGG | 1.07 ± 0.061 |
| ATGGTGTCAG | 0.994 ± 0.046 |
| CGGGGGCTGC | 1.13 ± 0.1 |
| CTTCAGGGAA | 1.01 ± 0.032 |
| TTGTTCAGTT | 1.02 ± 0.036 |
| ATATCTAAGT | 0.9984 ± 0.0034 |
| CTCTCGACAC | 1.69 ± 0.078 |
| CTTCTAGTCC | 1.03 ± 0.028 |
| GGCTCGGTAC | 1.24 ± 0.13 |
| GAGCGAGAAG | 1.01 ± 0.028 |
| TTGTTTTTGC | 0.9959 ± 0.0089 |
| TGGTAAAAAG | 1.025 ± 0.0047 |

| Sequence | switch fluorescence ratio |
| --- | --- |
| ATTTGTTACG | 1.01 ± 0.046 |
| ATATACATGG | 1.01 ± 0.035 |
| AGTGTAAGCC | 0.9622 ± 0.0067 |
| ATACTGGAAA | 1.011 ± 0.01 |
| GGGGTTGGGT | 1.03 ± 0.026 |
| GTTACTAATG | 0.9996 ± 0.0029 |
| AAAAGGCGGT | 1.01 ± 0.012 |
| TGGAAAATTT | 1.01 ± 0.0059 |
| TGGGAATGCG | 1.013 ± 0.0026 |
| GAGGAACGTG | 0.967 ± 0.014 |
| AATTGTTTAG | 0.982 ± 0.034 |
| GAGTGACCGA | 1.01 ± 0.02 |
| TTATGGTAGC | 0.995 ± 0.015 |
| TGTACGTAG | 1.01 ± 0.012 |
| GGCGTACTTG | 1.01 ± 0.012 |
| GGTTGGGGTG | 1.01 ± 0.037 |
| GAGTAGTATT | 1 ± 0.02 |
| GGTCGAAAGG | 0.985 ± 0.063 |
| GGATTTAGGT | 0.994 ± 0.049 |
| GGGCACGTCG | 0.9888 ± 0.0094 |
| TAGATTTTTG | 0.982 ± 0.036 |
| TGTTTTTGGC | 1 ± 0.025 |
| CGGAAGTGCG | 1.0061 ± 6.8e-05 |
| TATTTTAAGT | 0.993 ± 0.038 |
| TACGAGGTTT | 0.978 ± 0.03 |

| Sequence | switch fluorescence ratio |
| --- | --- |
| CGGTAGGAAT | 1.018 ± 0.0077 |
| CATGCATTTT | 1.09 ± 0.079 |
| TATCTGGGTC | 1.02 ± 0.067 |
| GGGCGGTATA | 0.986 ± 0.025 |
| GTCGTGGCGA | 1.01 ± 0.02 |
| AATTTTTGGG | 0.994 ± 0.03 |
| TTCGGGTTAT | 1.01 ± 0.049 |
| AAGATCAGGC | 0.9735 ± 0.0023 |
| GGAATTTCTT | 1.01 ± 0.047 |
| CGATACGGTG | 1.07 ± 0.035 |
| TACTCCGGTT | 2.02 ± 0.19 |
| TACAAGTAT | 0.997 ± 0.028 |
| GACATTCTCG | 1.005 ± 0.0086 |
| TGGGGATATA | 1.029 ± 0.0093 |
| TTTGTGTGGT | 0.978 ± 0.017 |
| GGGGACAATG | 1.02 ± 0.044 |
| CGCACTGTGG | 1.028 ± 0.0031 |
| TTATGGACGT | 1.01 ± 0.02 |
| TGAAAGAACT | 1.16 ± 0.21 |
| AGAAGGGTTG | 1 ± 0.023 |
| CGGTGGCTGC | 0.967 ± 0.011 |
| ACTGGGGGGA | 1.02 ± 0.04 |
| TAATTAGTTA | 0.992 ± 0.025 |
| CATTTTTGTT | 0.979 ± 0.031 |
| TTTTTCAAAA | 1.029 ± 0.0063 |

| Sequence | switch fluorescence ratio |
| --- | --- |
| ATATATACTG | 1.05 ± 0.071 |
| GATTGGGTTG | 0.981 ± 0.045 |
| AACACTGATT | 1.04 ± 0.026 |
| AGGAGGGTAA | 1.024 ± 0.0031 |
| GGCCGCCTTG | 1 ± 0.037 |
| ATGATTACGC | 1.06 ± 0.015 |
| ACCACATATC | 1.1 ± 0.06 |
| TATCATTTTT | 1 ± 0.011 |
| ATCATGTGGG | 0.999 ± 0.018 |
| TTTGGCTTAT | 0.989 ± 0.022 |
| TGTTAAGGGG | 1.18 ± 0.21 |
| TCATGTGAAA | 1.03 ± 0.021 |
| AAAAACTGAA | 1.01 ± 0.02 |
| ATGGGGACCT | 1.17 ± 0.17 |
| GCAGTACGGC | 1.05 ± 0.033 |
| GAGATGTGCG | 0.9319 ± 0.008 |
| GGTGTGCGTC | 1 ± 0.026 |
| TTTGAACTGT | 1.18 ± 0.14 |
| AGGAAATATT | 1.01 ± 0.012 |
| GGGGTCGTTC | 0.99 ± 0.028 |
| TATGGAGTTA | 0.986 ± 0.027 |
| CTACTTGAGT | 0.985 ± 0.019 |
| CTTAAAGTCG | 0.981 ± 0.0073 |
| CAATGTTGAG | 1 ± 0.032 |
| CGGGAACTTT | 1.02 ± 0.065 |

| Sequence | switch fluorescence ratio |
| --- | --- |
| GCTGCGGGG | 1.01 ± 0.053 |
| TTCGAGTGCC | 0.991 ± 0.013 |
| AGCTGTACTA | 1.21 ± 0.029 |
| GAAACTTGTG | 0.963 ± 0.025 |
| ATGCGTGGGG | 1.02 ± 0.029 |
| CAGGTAGTTG | 1.004 ± 0.0032 |
| GTGAAAATTT | 1.07 ± 0.083 |
| GGGTCACTGG | 0.9765 ± 0.0056 |
| TTGTTATAGC | 0.987 ± 0.042 |
| ACACCGGTTA | 1.01 ± 0.035 |
| TATTTCGGGG | 1.02 ± 0.023 |
| GGATGCTGAT | 1 ± 0.047 |
| ATGGGCTTTG | 0.9674 ± 0.0093 |
| CATAAGGTTG | 0.991 ± 0.017 |
| AAAAGTTTGT | 1 ± 0.032 |
| AGATGATTGG | 0.985 ± 0.023 |
| AGTATCTTTA | 0.9913 ± 0.0096 |
| TTAAGTGGGC | 1.12 ± 0.17 |
| TATGCATATG | 1.02 ± 0.048 |
| GGGGGCCGGT | 1.01 ± 0.058 |
| TGGGAGGAAT | 0.988 ± 0.037 |
| AGTAGAGCCT | 1.061 ± 0.0069 |
| ATTAGCAGGC | 1.11 ± 0.012 |
| CACTATAACT | 1.071 ± 0.0068 |
| TTTAAATGTT | 0.991 ± 0.031 |

| Sequence | switch fluorescence ratio |
| --- | --- |
| AGGTTGTGTC | 0.979 ± 0.047 |
| CATATAGTTC | 0.984 ± 0.03 |
| AGAAGTTGCG | 0.986 ± 0.0083 |
| TTAATTGCGA | 0.9861 ± 0.0048 |
| GGGGGGTTCC | 1.02 ± 0.044 |
| AATCGGGGAT | 1 ± 0.012 |
| AATGTGGGTC | 0.9392 ± 0.006 |
| GATAAGAGTG | 1.02 ± 0.052 |
| CAAAAGATTC | 1.045 ± 0.0095 |
| GGTTTATATT | 1.01 ± 0.05 |
| CAGGGTGGTT | 1.03 ± 0.028 |
| CAAGTATCAT | 0.996 ± 0.076 |
| GGTTCTGTGT | 0.99 ± 0.012 |
| GAATAACTGG | 0.993 ± 0.084 |
| CGTTGTTTGG | 0.966 ± 0.058 |
| CCTGGGCAAG | 3.81 ± 0.36 |
| ATTTATATCA | 1.01 ± 0.024 |
| TAAGGACGGC | 1.06 ± 0.035 |
| CAAAGTTAGG | 0.97 ± 0.013 |
| AAAGTTGCGG | 1.016 ± 0.0045 |
| AATGAAAATG | 0.9804 ± 0.0089 |
| GGCGCTGGAT | 1.02 ± 0.019 |
| TCCTGATGTT | 0.982 ± 0.046 |
| GACCATGGGG | 1.07 ± 0.098 |
| CAAAAAGCAC | 1.06 ± 0.036 |

| Sequence | switch fluorescence ratio |
| --- | --- |
| GCATGAGGGA | 0.993 ± 0.019 |
| CTGGGGATTT | 1.02 ± 0.013 |
| TTGGTTTTCG | 0.973 ± 0.026 |
| TTGGTAAGCG | 1.02 ± 0.051 |
| CAATAAAAG | 0.9766 ± 0.0071 |
| GCATTAGGGG | 1.01 ± 0.016 |
| GTTTGTCCGA | 1.01 ± 0.012 |
| GGGTGCTGCT | 0.954 ± 0.033 |
| TGGTGGGATT | 0.995 ± 0.012 |
| GGGCAAAAAA | 1.03 ± 0.073 |
| TGGTTTAAGG | 0.9844 ± 0.0088 |
| CCGTCTACTG | 1.04 ± 0.013 |
| TAGATTTTAT | 1.01 ± 0.042 |
| GGGATGCGG | 0.9609 ± 0.0064 |
| GGACTCGGGC | 0.985 ± 0.031 |
| GGTATAAATT | 0.939 ± 0.011 |
| CAAGTTAAGG | 1.02 ± 0.013 |
| TGGGGCACCC | 0.985 ± 0.01 |
| GTTTTTTGGA | 1.01 ± 0.018 |
| TGAGGAACCT | 1.77 ± 0.098 |
| TTGTATGGCA | 0.973 ± 0.027 |
| CTATACCGTT | 1.003 ± 0.0048 |
| AACTGAGTTT | 1.008 ± 0.0015 |
| TTTATGTCGC | 1.01 ± 0.054 |
| TTTGCTAGTT | 0.988 ± 0.009 |
